Measurements reported in publication PMC9482650, “Quantitative fragmentomics allow affinity mapping of interactomes” (Nature Communications, 2022).

Columns and labels:
Assay in all cases: holdup assay
Set-up in all cases: key: below the threshold = too weak to quantify, mostly under pKd 3.1 to 4
[1] = target: T1, DFNB31_1, Q9P202
T1 sequence (Q9P202 135-233, limits assumed, looked up): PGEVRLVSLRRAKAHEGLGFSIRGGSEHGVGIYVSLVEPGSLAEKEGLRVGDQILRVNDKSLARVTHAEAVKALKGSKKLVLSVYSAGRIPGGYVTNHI

[2] = target: T2, MPP7, Q5T2T1
T2 sequence (Q5T2T1 134-230, limits assumed, looked up): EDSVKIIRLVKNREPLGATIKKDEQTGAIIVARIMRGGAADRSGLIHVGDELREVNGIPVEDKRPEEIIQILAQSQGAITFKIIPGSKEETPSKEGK

[3] = target: T3, GRIP1_7, Q9Y3R0
T3 sequence (Q9Y3R0 999-1096, limits assumed, looked up): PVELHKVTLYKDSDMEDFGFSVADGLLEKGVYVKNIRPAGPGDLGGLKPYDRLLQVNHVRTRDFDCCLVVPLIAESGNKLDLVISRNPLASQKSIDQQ

[4] = target: LNX1_3, Q8TBB1
[5] = target: T4, LIN7B, Q9HAP6
T4 sequence (Q9HAP6 88-185, limits assumed, looked up): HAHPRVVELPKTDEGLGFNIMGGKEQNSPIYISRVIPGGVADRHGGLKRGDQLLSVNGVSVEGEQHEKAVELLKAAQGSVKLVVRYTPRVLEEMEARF

[6] = target: T5, PDZD2_2, O15018
T5 sequence (O15018 329-429, limits assumed, looked up): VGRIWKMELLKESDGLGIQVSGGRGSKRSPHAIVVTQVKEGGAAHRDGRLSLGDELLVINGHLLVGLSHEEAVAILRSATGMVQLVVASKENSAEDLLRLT

[7] = target: NHERF4_1, Q86UT5-2
[8] = target: Inadl_9, Q8NI35
[9] = target: Inadl_1, Q8NI35
[10] = target: DLG1_1, Q12959
[11] = target: T6, GRIP1_4, Q9Y3R0
T6 sequence (Q9Y3R0 467-571, limits assumed, looked up): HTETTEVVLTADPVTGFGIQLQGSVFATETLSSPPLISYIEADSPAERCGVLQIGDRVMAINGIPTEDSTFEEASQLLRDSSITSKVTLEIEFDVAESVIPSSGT

[12] = target: Inadl_5, Q8NI35
[13] = target: T7, GRIP1_3, Q9Y3R0
T7 sequence (Q9Y3R0 247-346, limits assumed, looked up): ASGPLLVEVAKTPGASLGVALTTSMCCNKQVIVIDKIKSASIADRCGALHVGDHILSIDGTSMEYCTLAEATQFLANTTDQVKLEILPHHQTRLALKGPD

[14] = target: DLG2_3, Q15700
[15] = target: GORASP1, Q9BQQ3
[16] = target: DLG1_2, Q12959
[17] = target: AHNAK1, Q09666
[18] = target: PDZRN4_1, Q6ZMN7
[19] = target: SCRIB_3, Q14160
[20] = target: T8, DLG3_2, Q92796
T8 sequence (Q92796 221-321, limits assumed, looked up): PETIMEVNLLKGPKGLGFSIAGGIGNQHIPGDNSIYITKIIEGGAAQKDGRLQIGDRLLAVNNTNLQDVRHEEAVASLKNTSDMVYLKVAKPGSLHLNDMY

[21] = target: Inadl_10, Q8NI35
[22] = target: T9, SNTB1, Q13884
T9 sequence (Q13884 107-205, limits assumed, looked up): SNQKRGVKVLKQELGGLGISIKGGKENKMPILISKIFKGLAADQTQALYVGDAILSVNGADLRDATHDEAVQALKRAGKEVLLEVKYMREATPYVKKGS

[23] = target: T10, HTRA3, P83110
T10 sequence (P83110 354-453, limits assumed, looked up): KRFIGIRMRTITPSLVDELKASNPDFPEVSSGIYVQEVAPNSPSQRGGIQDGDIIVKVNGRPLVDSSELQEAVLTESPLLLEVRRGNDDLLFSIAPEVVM

[24] = target: PICK1, Q9NRD5
[25] = target: T11, APBA2_1, Q99767
T11 sequence (Q99767 563-664, limits assumed, looked up): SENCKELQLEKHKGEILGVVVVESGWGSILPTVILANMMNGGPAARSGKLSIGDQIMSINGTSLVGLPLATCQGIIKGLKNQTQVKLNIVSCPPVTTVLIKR

[26] = target: T12, PCLO, Q9Y6V0
T12 sequence (Q9Y6V0 4491-4600, limits assumed, looked up): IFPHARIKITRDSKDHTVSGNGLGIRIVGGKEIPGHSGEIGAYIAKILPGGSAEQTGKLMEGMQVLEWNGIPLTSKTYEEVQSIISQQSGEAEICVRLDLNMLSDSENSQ

[27] = plain residues with an end cap or a label only (N-terminal biotin on a linker: ttds)
[28] = plain residues with an end cap or a label only (N-terminal biotin on a linker: ado-ado)
[29] = plain residues with an end cap or a label only (N-terminal biotin on a linker: ahx)

Chain of SCRIB_3, Q14160 (Q14160 999-1103): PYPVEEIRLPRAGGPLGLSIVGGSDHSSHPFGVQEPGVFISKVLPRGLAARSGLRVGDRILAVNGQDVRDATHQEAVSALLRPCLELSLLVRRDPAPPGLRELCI
Chain of AHNAK1, Q09666 (Q09666 4-100): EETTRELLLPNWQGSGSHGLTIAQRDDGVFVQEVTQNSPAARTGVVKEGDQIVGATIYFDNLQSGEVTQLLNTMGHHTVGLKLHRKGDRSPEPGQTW
Chain of Inadl_5, Q8NI35 (Q8NI35 673-780): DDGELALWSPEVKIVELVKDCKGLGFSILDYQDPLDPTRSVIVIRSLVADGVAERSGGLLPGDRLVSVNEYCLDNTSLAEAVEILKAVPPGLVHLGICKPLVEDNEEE
Chain of LNX1_3, Q8TBB1 (Q8TBB1 500-596): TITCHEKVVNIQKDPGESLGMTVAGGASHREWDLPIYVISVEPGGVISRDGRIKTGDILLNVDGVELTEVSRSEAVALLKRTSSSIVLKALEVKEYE
Chain of NHERF4_1, Q86UT5-2 (Q86UT5 other isoform, or with tags, fused parts or gaps): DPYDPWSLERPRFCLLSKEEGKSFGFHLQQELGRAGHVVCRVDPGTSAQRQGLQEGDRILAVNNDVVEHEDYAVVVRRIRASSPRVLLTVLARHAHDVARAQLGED
Chain of GORASP1, Q9BQQ3 (Q9BQQ3 1-208): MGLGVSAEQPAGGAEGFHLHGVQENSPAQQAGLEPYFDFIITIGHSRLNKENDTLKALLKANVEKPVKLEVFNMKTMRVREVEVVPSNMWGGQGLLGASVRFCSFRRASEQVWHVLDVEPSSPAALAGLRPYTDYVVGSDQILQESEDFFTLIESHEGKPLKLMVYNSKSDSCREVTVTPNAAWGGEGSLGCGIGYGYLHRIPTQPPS
Chain of PDZRN4_1, Q6ZMN7 (Q6ZMN7 213-318): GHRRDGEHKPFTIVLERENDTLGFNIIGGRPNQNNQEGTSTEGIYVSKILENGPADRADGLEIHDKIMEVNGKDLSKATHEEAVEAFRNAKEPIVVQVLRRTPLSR
Chain of PICK1, Q9NRD5 (Q9NRD5 17-115): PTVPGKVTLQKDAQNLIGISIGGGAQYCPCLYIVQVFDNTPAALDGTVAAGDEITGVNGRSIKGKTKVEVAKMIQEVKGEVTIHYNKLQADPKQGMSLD
Chain of Inadl_10, Q8NI35 (Q8NI35 1673-1763): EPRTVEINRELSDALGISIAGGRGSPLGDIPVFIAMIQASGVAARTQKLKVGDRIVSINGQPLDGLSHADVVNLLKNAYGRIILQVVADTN
Chain of Inadl_9, Q8NI35 (Q8NI35 1530-1615): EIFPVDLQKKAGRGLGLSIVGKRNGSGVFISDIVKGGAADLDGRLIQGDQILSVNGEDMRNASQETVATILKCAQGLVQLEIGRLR
Chain of Inadl_1, Q8NI35 (Q8NI35 113-229): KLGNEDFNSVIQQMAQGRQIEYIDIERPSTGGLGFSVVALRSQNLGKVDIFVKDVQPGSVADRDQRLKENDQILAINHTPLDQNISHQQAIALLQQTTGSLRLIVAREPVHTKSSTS

SEKHFRETEV [HTLV1-TAX1, P03409]
pKd [1, 27]: 3.96
pKd [2, 27]: below the threshold
pKd [3, 27]: below the threshold
pKd [4, 27]: 3.64
pKd [5, 27]: 3.83
pKd [6, 27]: 4.44
pKd [7, 27]: below the threshold
pKd [8, 27]: below the threshold
pKd [9, 27]: below the threshold
pKd [10, 27]: 5.19
pKd [11, 27]: below the threshold
pKd [12, 27]: below the threshold
pKd [13, 27]: below the threshold
pKd [14, 27]: 5.36
pKd [15, 27]: below the threshold
pKd [16, 27]: 5.75
pKd [17, 27]: 3.92
pKd [18, 27]: 4.9
pKd [19, 27]: 5.34
pKd [20, 27]: 5.56
pKd [21, 27]: below the threshold
pKd [22, 27]: 6.12
pKd [23, 27]: below the threshold
pKd [24, 27]: below the threshold
pKd [25, 27]: below the threshold
pKd [26, 27]: below the threshold

SVVSERISSV [HTR2C, P28335]
pKd [1, 28]: below the threshold
pKd [2, 28]: below the threshold
pKd [3, 28]: below the threshold
pKd [4, 28]: below the threshold
pKd [5, 28]: 3.7
pKd [6, 28]: 5.56
pKd [7, 28]: 3.72
pKd [8, 28]: below the threshold
pKd [9, 28]: below the threshold
pKd [10, 28]: 4.07
pKd [11, 28]: below the threshold
pKd [12, 28]: below the threshold
pKd [13, 28]: below the threshold
pKd [14, 28]: 3.89
pKd [15, 28]: below the threshold
pKd [16, 28]: 4.74
pKd [17, 28]: below the threshold
pKd [18, 28]: below the threshold
pKd [19, 28]: 3.71
pKd [20, 28]: 4.68
pKd [21, 28]: below the threshold
pKd [22, 28]: 4.89
pKd [23, 28]: below the threshold
pKd [24, 28]: below the threshold
pKd [25, 28]: below the threshold
pKd [26, 28]: below the threshold

MERLRVETDV [ARHGEF16, Q5VV41]
pKd [1, 27]: below the threshold
pKd [2, 27]: 3.54
pKd [3, 27]: below the threshold
pKd [4, 27]: below the threshold
pKd [5, 27]: below the threshold
pKd [6, 27]: 4.33
pKd [7, 27]: below the threshold
pKd [8, 27]: below the threshold
pKd [9, 27]: below the threshold
pKd [10, 27]: 5.01
pKd [11, 27]: below the threshold
pKd [12, 27]: below the threshold
pKd [13, 27]: below the threshold
pKd [14, 27]: 4.11
pKd [15, 27]: below the threshold
pKd [16, 27]: 5.5
pKd [17, 27]: 3.6
pKd [18, 27]: 3.83
pKd [19, 27]: 5.21
pKd [20, 27]: 5.61
pKd [21, 27]: below the threshold
pKd [22, 27]: 4.84
pKd [23, 27]: below the threshold
pKd [24, 27]: below the threshold
pKd [25, 27]: below the threshold
pKd [26, 27]: below the threshold

HIVEALETDV [PBK, Q96KB5]
pKd [1, 27]: 4.03
pKd [2, 27]: below the threshold
pKd [3, 27]: below the threshold
pKd [4, 27]: below the threshold
pKd [5, 27]: below the threshold
pKd [6, 27]: 4.84
pKd [7, 27]: below the threshold
pKd [8, 27]: below the threshold
pKd [9, 27]: below the threshold
pKd [10, 27]: 5.01
pKd [11, 27]: below the threshold
pKd [12, 27]: below the threshold
pKd [13, 27]: below the threshold
pKd [14, 27]: 3.7
pKd [15, 27]: below the threshold
pKd [16, 27]: 5.66
pKd [17, 27]: below the threshold
pKd [18, 27]: below the threshold
pKd [19, 27]: 5.18
pKd [20, 27]: 5.71
pKd [21, 27]: below the threshold
pKd [22, 27]: 5.29
pKd [23, 27]: below the threshold
pKd [24, 27]: below the threshold
pKd [25, 27]: below the threshold
pKd [26, 27]: below the threshold

EKLSSIESDV [GRIN2B, Q13224]
pKd [1, 29]: below the threshold
pKd [2, 29]: below the threshold
pKd [3, 29]: 3.48
pKd [4, 29]: below the threshold
pKd [5, 29]: below the threshold
pKd [6, 29]: 4.82
pKd [7, 29]: 3.53
pKd [8, 29]: below the threshold
pKd [9, 29]: below the threshold
pKd [10, 29]: 4.3
pKd [11, 29]: below the threshold
pKd [12, 29]: below the threshold
pKd [13, 29]: below the threshold
pKd [14, 29]: 4.56
pKd [15, 29]: below the threshold
pKd [16, 29]: 4.97
pKd [17, 29]: below the threshold
pKd [18, 29]: below the threshold
pKd [19, 29]: 4.28
pKd [20, 29]: 4.96
pKd [21, 29]: below the threshold
pKd [22, 29]: 4.46
pKd [23, 29]: below the threshold
pKd [24, 29]: below the threshold
pKd [25, 29]: 3.53
pKd [26, 29]: below the threshold
